Measured values from patent US20110045046A1.
Where no end group is shown, it is not given here. Side-chain parts run from the residue outwards.

B1: LLLL(Tn-T)LTV (peptide)
peptide: LLLLTVLTV
modifications: not checked
B2: … (peptide)
peptide: ALASAAAAV
modifications: not checked
B3: … (peptide)
peptide: TLTSCNTSV
modifications: not checked
B4: ALA(GALNAc-O-S)SAAAAV (peptide)
peptide: ALASAAAAV
modifications: not checked
B5: TLT(GalNAc-O-S)CNTSV (peptide)
peptide: TLTSCNTSV
modifications: not checked
B6: AIIA(β-Gal-[1->3]-α-GalNAc-O-serine)FAAL (peptide)
peptide: AIIAS([GalNAc-Gal])FAAL

What was measured:
HLA-A*0201 (human) [1] = experiment: inhibition of binding of a radioiodinated peptide to the MHC molecule (50% inhibition; column headed KD)
HLA-A*0203 (human) [2] = experiment: as above
HLA-A*0206 (human) = experiment: MHC binding assay with purified MHC molecules
HLA-A*0201 (human) [3] = experiment: MHC binding assay with purified MHC molecules
HLA-A*0202 (human) = experiment: MHC binding assay with purified MHC molecules
HLA-A*0203 (human) [4] = experiment: MHC binding assay with purified MHC molecules
[5] = molecular target: T1, H-2K^b class I MHC molecule (mouse); experiment: K^b binding capacity
T1 chain 1: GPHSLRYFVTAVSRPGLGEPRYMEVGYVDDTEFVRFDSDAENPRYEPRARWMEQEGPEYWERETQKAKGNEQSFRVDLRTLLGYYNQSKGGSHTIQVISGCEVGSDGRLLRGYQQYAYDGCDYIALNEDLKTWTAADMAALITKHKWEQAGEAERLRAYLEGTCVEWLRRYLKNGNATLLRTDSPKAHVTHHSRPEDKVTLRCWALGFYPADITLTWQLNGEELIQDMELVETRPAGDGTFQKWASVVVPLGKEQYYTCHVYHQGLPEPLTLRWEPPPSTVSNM
T1 chain 2: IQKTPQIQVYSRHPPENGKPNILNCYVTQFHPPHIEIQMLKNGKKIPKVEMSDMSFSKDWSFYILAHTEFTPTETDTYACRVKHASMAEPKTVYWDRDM

| Binder | IC50 (HLA-A*0206 (human)) [nM] | IC50 (HLA-A*0201 (human) [3]) [nM] | IC50 (HLA-A*0202 (human)) [nM] | IC50 (HLA-A*0203 (human) [4]) [nM] | further results |
| --- | --- | --- | --- | --- | --- |
| B1 | – | – | – | – | Kd (HLA-A*0201 (human) [1]): 1300 nM; Kd (HLA-A*0203 (human) [2]): 4290 nM |
| B2 | 266 | – | – | – | – |
| B3 | 15 | 0.29 | 8.1 | 13 | – |
| B4 | 81 | – | – | – | – |
| B5 | 24 | 0.72 | 15 | 8.2 | – |
| B6 | – | – | – | – | IC50 [5]: 7 nM |
